# According to patent US5591613A, “Method for the preparation of D-arginine and L-ornithine” (Degussa Aktiengesellschaft, priority 1990, dated 1997):
# B1: Calf liver arginase (Bos taurus) (protein)
# chain: MSSKPQSIGVIGAPFSKGQPRGGVEEGPTVLRKAGLLEKLKELECDVKDYGDLSFADNLDDSPFQIVKNPRCVGKASEKLADVVAEVKKTGRISLVLGGDHSLAIGSISGHARVHPDLCVIWVDAHTDINTPLTTKTGNLHGQPVSFLLKELKEKMPEVPGFYWVAPCISAKDIVYIGLRDVDPGEHYILKTLGIKYFSMTEVDKLGIGKVMEETFSYLLGRKKRPIHLSFDVDGLDPSFTPATGTPVQGGLTYREGLYITEEIYKTGLLSGLDIMEVNPSLGKTPEEVTRTVNTTVAITMACFGVAREGNHKPIDYLSPPK
# notes: purchased Boehringer Mannheim (Mannheim, F.R.G.)
# Substrate: N=C(N)NCCC[C@H](N)C(=O)O
# Assay: Arginase-catalysed hydrolysis of L-Arg to L-Orn, initial rates in batch, with and without inhibitors
# Type: biochemical, calf
# Details: other: nonlinear regression of initial rate data with L-Arg; 25.0 °C
# Description: In further experiments, the materials used were: Calf liver arginase (activity 110 U/mg) which was obtained from Boehringer Mannheim (Mannheim, F.R.G.). Amino acids were from Rexim (Ham, France). MnSO4, MnO2, and ascorbic acid were from E. Merck (Darmstadt, F.R.G.).
# Batch conditions used were: Starting pH value, except for the activity-pH curve, was either 11.5, the natural value for L-Arg in water, or 9.5, adjusted from pH 11.5 with conc. HCl. The temperature was 25° C. unless otherwise noted. Typical concentrations of L-Arg were 0.75M. Unless otherwise mentioned, [Mn2^+ ]=5-10^-4 M. Reaction progress was followed by HPLC (amino column, mobile phase: phosphate buffer (pH 6.4)/acetonitrile).
# Kinetic data was obtained as follows: Initial rate data were analyzed by a non-linear regression method (Marquardt routine) with the program OPTI (U. Giesecke, KFA J ulich).
# A linear slope of 1/[S] vs. [I] plot distinguishes a purely competitive inhibition mechanism from a partially competitive one. Simultaneously, the apparent and the intrinsic KM -value are proportional to [I] according to equation (5) from which the inhibition constant KI can be calculated
# Since the runs have been conducted at [LArg]=50 mM=2·Km,intr,Vo =Vmax ·2·KM,intr /(KM,intr (3+[I]/KI))=Vmax ·2/(3+[I]/KI). At [I]=KI, Vo =Vmax 2/(3+1)=Vmax /2. So, KI can be calcuated with sufficient accuracy from a Vo vs. [I] plot such as FIG. 4.
protein,measurement,value
B1,Km,25.5 mM
same,kcat,1200 s⁻¹
